Source: US20240247068A1 (INDUSTRY FOUNDATION OF CHONNAM NATIONAL UNIVERSITY, published 2024)

T1: calreticulin (CRT) exposed on the cell membrane of drug-treated CT26 and MC38 cells (UniProt P14211 18-416, limits assumed)
T1 construct: whole, on cells; Target is inferred from cells on which calreticulin exposure was induced by anticancer drugs; cells were fixed with 3% paraformaldehyde; also called calreticulin on the cell surface
T1 sequence (looked up): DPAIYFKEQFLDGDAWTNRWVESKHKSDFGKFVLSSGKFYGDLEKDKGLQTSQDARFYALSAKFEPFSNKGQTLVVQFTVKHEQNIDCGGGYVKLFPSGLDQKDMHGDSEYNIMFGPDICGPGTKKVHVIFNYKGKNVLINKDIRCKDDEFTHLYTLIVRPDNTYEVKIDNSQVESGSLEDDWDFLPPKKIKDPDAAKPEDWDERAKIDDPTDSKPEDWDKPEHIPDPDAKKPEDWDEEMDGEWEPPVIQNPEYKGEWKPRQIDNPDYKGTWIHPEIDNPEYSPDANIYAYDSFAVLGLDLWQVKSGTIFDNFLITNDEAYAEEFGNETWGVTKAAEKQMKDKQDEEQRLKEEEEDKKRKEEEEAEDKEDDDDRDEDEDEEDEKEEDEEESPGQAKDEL

T2: calreticulin (CRT) exposed on the cell membrane of drug-treated Hela and MDA-MB-231 cells (UniProt P27797 18-417, limits assumed)
T2 construct: whole, on cells; Target is inferred from cells on which calreticulin exposure was induced by anticancer drugs; cells were fixed with 3% paraformaldehyde; also called calreticulin on the cell surface
T2 sequence (looked up): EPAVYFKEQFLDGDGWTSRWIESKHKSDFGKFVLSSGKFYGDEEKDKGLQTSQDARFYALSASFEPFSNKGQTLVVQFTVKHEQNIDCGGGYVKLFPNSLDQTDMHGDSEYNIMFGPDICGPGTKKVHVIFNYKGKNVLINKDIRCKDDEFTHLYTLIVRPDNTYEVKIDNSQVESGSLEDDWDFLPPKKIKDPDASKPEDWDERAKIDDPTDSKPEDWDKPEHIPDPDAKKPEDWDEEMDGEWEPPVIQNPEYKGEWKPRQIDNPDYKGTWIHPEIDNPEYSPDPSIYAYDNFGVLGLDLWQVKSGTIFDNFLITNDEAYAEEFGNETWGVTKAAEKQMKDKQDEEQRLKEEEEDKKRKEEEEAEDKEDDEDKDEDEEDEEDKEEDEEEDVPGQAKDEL


Experiments:
[1] = target: T1, calreticulin (CRT) exposed on the cell …; assay: confocal microscopy, mitoxantrone-treated CT26 cells, 10 µg/mL monobody, anti-His tag detection
Protocol: In order to verify the binding force of the purified CRT-monobody to calreticulin, the present inventors observed the degree of binding with a confocal microscope after treating the cancer cells with CRT-monobody. Specifically, CT26 (colon cancer) cells, which are cancer cells, were seeded at 1×10⁵ cells per well in chamber slides (154534PAK, Thermo Fisher Scientific) and cultured overnight in a C02 incubator. Then, each of the cells was treated with mitoxantrone (25 μM), which is an anticancer drug, to induce calreticulin on the surface thereof, treated with gemcitabine (15 μM) as a control group, and cultured for 4 hours, washed with PBS, and reacted with 3% paraformaldehyde for 10 minutes to fix the cells. Then, a block buffer (3% BSA in PBS) was treated for 1 hour to prevent the hard-to-bind antibody, and the CRT-monobody (10 μg/mL) of the present invention was treated in each well and reacted for 1 hour to induce binding to calreticulin. […] In addition, Alexa 555 conjugated WGA-555 (1:2000, 3% BSA in PBS) was treated in order to distinguish cell membranes, DAPI-Glod-antifade was treated, and mounting was performed, and the prepared slides were refrigerated under dark conditions.

[2] = target: T1, calreticulin (CRT) exposed on the cell …; assay: flow cytometry, mitoxantrone- or doxorubicin-treated CT26 and MC38 cells, 5 µg/mL, anti-His tag detection
From the text: (§1) The present inventors allowed cancer cells to react with CRT-monobody-Rluc8, and then measured the binding degree in the number of cells in order to more accurately confirm the binding force of CRT-monobody-Rluc8, which was purified according to an embodiment of the present invention, to calreticulin. To this end, CT26, MC38, Hela, and MDA-MB-231 cells were first cultured, and then the expression of calreticulin on the cell surface was induced by the same method (gemcitabine, doxorubicin, and mitoxantrone) as in Example 5. […] Finally, in order to identify cells bound to CRT-monobody, fluorescence signals of the cells were identified using a flow cytometer (BD Bioscience).
(§2) As a result, when the CT26 (colon cancer), MC38 (colon cancer), Hela (uterine cancer), and MDA-MB-231 (breast cancer) cells were not treated with an anticancer drug and when the cells were treated with gemcitabine, no exposure of calreticulin on the cell membrane was confirmed through fluorescence signals for each cell, and there was no signal change after CRT-monobody treatment of the present invention, so that it was confirmed that the CRT-monobody was not bound to the cells.

[3] = target: T2, calreticulin (CRT) exposed on the cell …; assay: flow cytometry, mitoxantrone- or doxorubicin-treated Hela and MDA-MB-231 cells, 5 µg/mL, anti-His tag detection
From the text: as §1, §2

[4] = target: T2, calreticulin (CRT) exposed on the cell …; assay: confocal microscopy, mitoxantrone- or doxorubicin-treated Hela and MDA-MB-231 cells, 10 µg/mL, anti-His tag detection
Protocol: In order to verify the binding force of the CRT-monobody-Rluc8 protein to calreticulin, the present inventors observed the degree of binding with a confocal microscope after purifying CRT3-R, CRT4-R, and DGR-R as in Example 3 and treating cancer cells with the CRT-monobody-Rluc8 proteins. Specifically, cancer cells such as CT26 (colon cancer), MC38 (colon cancer), Hela (uterine cancer), and MDA-MB-231 (breast cancer) were seeded at 1×10⁵ cells per well in chamber slides (154534PAK, Thermo Fisher Scientific) and cultured overnight in a CO₂ incubator. Then, each of the cells was treated with doxorubicin (25 μM) and mitoxantrone (25 μM), which are anticancer drugs, to induce calreticulin on the surface thereof, treated with gemcitabine (15 μM) as a control group, and cultured for 4 hours, washed with PBS, and reacted with 3% paraformaldehyde for 10 minutes to fix the cells. Then, a block buffer (3% BSA in PBS) was treated for 1 hour to prevent the hard-to-bind antibody, and the CRT-monobody (10 μg/mL) was treated in each well and reacted for 1 hour to induce binding to calreticulin. […] In addition, Alexa 555 conjugated WGA-555 (1:2000, 3% BSA in PBS) was treated in order to distinguish cell membranes, DAPI-Glod-antifade was treated, and mounting was performed, and the prepared slides were refrigerated under dark conditions.

Row | Binder | binding result [1] | other results
1 | CRT5 recombinant CRT-monobody (designed binder, His-tagged protein from E. coli, purified on Ni-NTA; BC loop: Hep 1; DE and FG loops marked '-') MASVSDVPRDLEVVAATPTSLLISWGQPMYGQPMYYYRITYGETGGNSPVQEFTVPGSKSTATISGLKPGVDYTITVYAVTGRGDSPASSKPISINYRTGSHHHHHH | binds | –
2 | CRT3-R (recombinant CRT-monobody-Rluc8 of CRT3) (designed binder, not shown: large carriers; small tags and cut ends, detected with anti-His tag antibody) MASVSDVPRDLEVVAATPTSLLISWKLGFFKRYYRITYGETGGNSPVQEFTVPGSKSTATISGLKPGVDYTITVYAVTGQPMYGQPMYPISINYRT | – | binding result [2]: binds; binding result [3]: binds
3 | CRT4 recombinant CRT-monobody (designed binder, His-tagged protein from E. coli, purified on Ni-NTA) MASVSDVPRDLEVVAATPTSLLISWGQPMYGQPMYYYRITYGETGGNSPVQEFTVPGSKSTATISGLKPGVDYTITVYAVTKLGFFKRPISINYRTGSHHHHHH | binds | –
4 | CRT1 recombinant CRT-monobody (designed binder, His-tagged protein expressed in E. coli BL21(DE3) from pETh plasmid, purified on Ni-NTA; FG loop: Hep 1; BC and DE loops unchanged) MASVSDVPRDLEVVAATPTSLLISWDAPAVTVRYYRITYGETGGNSPVQEFTVPGSKSTATISGLKPGVDYTITVYAVTGQPMYGQPMYPISINYRTGSHHHHHH | binds | –
5 | CRT2 recombinant CRT-monobody (designed binder, His-tagged protein from E. coli, purified on Ni-NTA; FG loop: Int alpha; BC and DE loops unchanged) MASVSDVPRDLEVVAATPTSLLISWDAPAVTVRYYRITYGETGGNSPVQEFTVPGSKSTATISGLKPGVDYTITVYAVTKLGFFKRPISINYRTGSHHHHHH | binds | –
6 | CRT3 recombinant CRT-monobody (designed binder, His-tagged protein from E. coli, purified on Ni-NTA) MASVSDVPRDLEVVAATPTSLLISWKLGFFKRYYRITYGETGGNSPVQEFTVPGSKSTATISGLKPGVDYTITVYAVTGQPMYGQPMYPISINYRTGSHHHHHH | binds | –
7 | CRT6 recombinant CRT-monobody (designed binder, His-tagged protein from E. coli, purified on Ni-NTA; BC loop: Int alpha; DE and FG loops marked '-') MASVSDVPRDLEVVAATPTSLLISWKLGFFKRYYRITYGETGGNSPVQEFTVPGSKSTATISGLKPGVDYTITVYAVTGRGDSPASSKPISINYRTGSHHHHHH | binds | –
8 | CRT4-R (recombinant CRT-monobody-Rluc8 of CRT4) (designed binder, not shown: large carriers; small tags and cut ends, detected with anti-His tag antibody) MASVSDVPRDLEVVAATPTSLLISWGQPMYGQPMYYYRITYGETGGNSPVQEFTVPGSKSTATISGLKPGVDYTITVYAVTKLGFFKRPISINYRT | – | binding result [2]: binds; binding result [4]: binds
